Assay results as given in publication PMC4210639.
pKd: −log10 of the molar value.

Molecular target: FLRT^LRR (SPR test of FLRT^LRR-FLRT^LRR binding)
Test: SPR

- pKd: < 4.00
Substance: FLRT^LRR (SPR test of FLRT^LRR-FLRT^LRR binding)
